Test: soluble on expression in E. coli; label from the status in PepcDB or PDB records

Sequence | soluble on expression in E. coli
MSLSHSEAGQAASVRRVLAVIPARGGSKGVPAKNLLPVGGVPLVARAVRECRATRLVTDVVVSTDDHAIAAAAREAGAEVVLRPAAIAGDTATSEAAVLHAMDTHEALHGAAVDVVLLVQCTSPFIVREDVDGVVHAIVGKGADTALTVAPFHGFVWRDADDAPGALGAERAAVEGGTDTLVTGTATSGGYGINHDKSFRPRRQDRPQDLLETGAVYGMDATGFREARHRFFGRTELVRTDPARVLEIDDPHDLARARALAPLFDANRPGALPTAEDIDAVVLDFDGTQTDDRVLIDSDGREFVSVHRGDGLGIAALRKSGLTMLILSTEQNPVVAARARKLKIPVLHGIDRKDLALKQWCEEQGIAPERVLYVGNDVNDLPCFALVGWPVAVASAHDVVRGAARAVTTVPGGDGAIREIASWILGPSLDSLDKEGHHHHHH | soluble
MSLSIAKNIENDPSKGWVVQKFGGTSVGKFPIKIAVDVAKEYLSTKRVALVCSARSTDTKAEGTTTRLIRATEAALRPAVGSVHDLVRIIETDHVQAARDFIQDVGIQDELIDAFHADCVELEQYLNAIRVLSEVSPRTRDLVIGMGERLSCRFMAAVLKDQGIDSEFIDMSHIIDEQREWRNLDASFYAYLASQLASKVTAVGNKVPVVTGFFGMVPGGLLSQIGRGYTDFCAALLAVGLNADELQIWKEVDGIFTADPRKVPTARLLPLITPEEAAELTYYGSEVIHPFTMSQVVHARIPIRIKNVGNPRGKGTVIFPDTISRHGSATPPHPPKIMPDDISASLANKGATAVTIKDTIMVINIQSNRKISAHGFLASIFAILDKYKLAVDLITTSEVHVSMALYEESDDGNMHEAFVELRRLGTLDILHGLAILSLVGKHMRNTTGYAGRMFCKLAEAQINIEMISQGASEINISCVIDEKMAVKALNVIHKELLEPLALHEVPSQASMLVEKPWLYSAEGHHHHHH | soluble
MSLSIFEHFQARYEAAKDEELSIQDFLALCKENKSAYANAAERLLLAIGEPEMIDTSKHSRLSRIFSNRVIARYKTFEDFYGMEEAIEQIVAYLKHAAQGLEERKQILYLLGPVGGGKSSLAEKLKALMQQMPIYVLSANGQRSPVNDHPFCLFDVNEDGELLKQEYGIDRRYLRSIMSPWAAKRLHEFGGDITKFKVVKVRPSILDQIAVAKTEPGDENNQDISSLVGKVDIRKLEHFSQDDPDAYSYSGALCRANQGLMEFVEMFKAPIKVLHPLLTATQEGNYNGTEGLSALPFDGMILAHSNESEWQTFRNNKNNEAFLDRVYIVKVPYCLRVSEEVKIYQKLLDHSELSKAPCAPSTLDLLAQFSVLSRLKVPENSSLFSKMRVYDGETLKDTDPKAKSYQEYRDYAGVDEGMSGLSTRFAFKILSRVFNFDHSEVAANPVHLFYVIEQQVEREQFPQETADRYNEFLKGYLIPRYVEFIGKEIQTAYLESYSEYGQNIFDRYVTYADFWIQDQEYRDPETGQLFDRSALNSELEKIEKTAGISNPKDFRNEIVNFVLRARANNNGQNPVWTSYEKLRTVIEKKMFSNTEDLLPVISFNAKTSSDDQKKHDDFVARMMEKGYTEKQVRLLSEWYLRVRKSSEGHHHHHH | soluble
MSLSIISQIEACDFERLYEIEQQAHLVPWSFGTLKNNQGERYLNLKLIENNQIIGFAICQTVLDEATLFNIAILPTYQGCGFGKLLLGKLIFQLKEKGVQTLWLEVRESNSARFLYEKIGFNEVDIRKNYYPKPSGGRENAVVMACYLEGHHHHHH | not soluble
MSLSILNSNAALRGLLDQHLADLSREEGLAPETIRDAIERGTMVLLGNPSHPSLRPILVGQPARVKVNANIGTSPMRNHPECEMQKVDAAVEAGADTIMDLSIAGDLDAIRREMLARCPLPLGTVPLYSVAQKYIECGKDPALIDPEEIFAEIEKQAQQGVDFMTVHCGLTRRGAEWAAKGDRLLGIVSRGGSILARWMLRHDRENPLLTGYDRILDIARKYNVTLSLGDGLRPGAGADAGDAAQWEEVMVLGQLAKRGLEAGVQCMIEGPGHVPMNEVEAQIVGIKKLTHGAPLYVLGPLVIDSCPGYDHIAGAIGGALAVRSGVDFLCYLTPAEHLTLPTREDVRAGVIASRIAAQAGEVALGRPHALARELGMGKARKALDWPGMERHALDAAMVDERRGEHRNEEECAMCGKFCAVKMLRDDPQGAFEGHHHHHH | soluble
MSLSILQRLIQQAKNPRGTIGSSMLCIMNTAHTRLTNWALQKVHIKKDAIILDIGCGGGKTIHTLSKRTPLGKIYGIDYSYQAVKNSIQTNIKDVQKQKVIVQQASVSSIPYHTNFFDLITAFQTHYFWPDVEQDIKEVFRVLQPNGSFLLVAETFKIQYHMEKWKTNEELINLFYKTGFTSVKCYEERGCLCVIGTKEGHHHHHH | not soluble
MSLSIRSLFGGLREKILGKNMKIVFPEGNDERVVRAAARLKFEGLLEPIILGQSEEVRNLLTKLGFADQDYTIINPNEYADFDKMKEAFVEVRKGKATLEDADKMLRDVNYFGVMLVKMGLADGMVSGAIHSTADTVRPALQIIKTKPGISRTSGVFLMNRENTSERYVFADCAINIDPTAQELAEIAVNTAETAKIFDIDPKIAMLSFSTKGSGKAPQVDKVREATEIATGLNPDLALDGELQFDAAFVPETAAIKAPDSAVAGQANTFVFPDLQSGNIGYKIAQRLGMFDAIGPILQGLNKPVNDLSRGSSAEDIYKLAIITAAQAIESQGEGHHHHHH | soluble
MSLSISFKDVPAGHWSYKAILDLASKNIVTGYGNGIFGFGDDVTREQVARLMYLQLKPESQENYNNPYNDINDHSTSFKREILALTEMGIFAGDEKGNFRPKASLTREEMAQVLTNAYKLVAKSEHTFVDVDRKSWSNKAISAVQSNRIAAGTGDNMFSPKMNVTREQYVQFLYNATLPYEERPGANQEPKRFANCKEANDAGYYDITRDSPYYGKHLDRDGDGIACERNKSSKEGHHHHHH | not soluble
MSLSKEVVYVPTGSIAKERSIFFDLKHMDKLTDLVNSGSFSADSKIKSEASGNIRMDVILSADNKFAAVQLFQFVPYTYQPVTAVHYFTNDAAAAVAAFLTKSQLNEGHHHHHH | soluble
MSLSKFTEMMKNRRSIYALGENLPISKEEVTALVKEVVRESPTAFNSQTQRVVFLFGDAHKKLWAMTEDALKPLTPAEAFPNTQAKLQGFAAGAGTILFFEDTDIVKNLQDSFPLYADNFPVWSEQATGLTQANVWTALAQENIGANLQHYNPVIDEAVAAEWSIPANWNLRAQMVIGSIEAPAGEKEYMEDSARFKEFNEGGSHHHHHH | soluble
MSLSKVLYIQDHDVTWIQFNRPEKRNAIDEETMDQFAEALAQAKGDQSKVIIVTGAGEKAFCAGGDLSSFHKLKTESEAKAMLAKMAKILLDVYYCPKLTVAALNGAAVGGGCEIAAACDIRLAAPHSKFGFIQGTLGITTGWGGTSFLMTRVQPHVSLEMTMTGKVYSSDVGENLGFIQKVIQKIPFREGVKEWLGLYTVLDQEVLIAYKERHLDRISRKELIWRIEREVAKCAQLWERDAHHEAVDAFLREGHHHHHH | soluble
MSLSLFDMFKVGIGPSSSHTVGPMKAGKQFVDDLVEKGLLDNVTRVAVDVYGSLSLTGKGHHTDIAIIMGLAGNEPATVDIDSIPGFIRDVETRERLLLAQGRHEVDFPKDDGMRFHNGNLPLHENGMQIHAWHDDTVIYSKTYYSIGGGFIVDEEHFGQEATNEVTVPYPFKSAKEMLEYCNSTGLSLSGMVMQNELALHSKKEIEEYFGHVWQTMQACIDRGMNTEGVLPGPLRVPRRASALRRMLVSSDKLSSDPMNVIDWVNMFALAVNEENAAGGRVVTAPTNGACGIVPAVLAYYDHFIESVSPDIYTRYFLAAGAIGALYKMNASISGAEVGCQGEVGVACSMAAAGLAELLGASPEQVCVAAEIGMEHNLGLTCDPVAGQVQVPCIERNAIASVKAINAARMAMRRTSAPRVSLDKVIETMYETGKDMNAKYRETSRGGLAIKVQCDEGHHHHHH | soluble
MSLSLIKVGLVGIGAQMQENLLPSLLQMQDIRIVAACDSDLERARRVHRFISDIPVLDNVPAMLNQVPLDAVVMAGPPQLHFEMGLLAMSKGVNVFVEKPPCATLEELETLIDAARRSDVVSGVGMNFKFARPVRQLREMTQVDEFGETLHIQLNHYANKPRAPLWGLDSTLRSFLLAQAIHTIDLAITFGDGELRRVQSSVQRHDDALIVRADMAFSSGATASLLAGTSFPYFEFDMKLVSSSSTLVELDNLWNITLHEPEHATRPTGAAKRWRGAWQPGPLDSGYERSGYHGELHQFFQAIREHRRFEADFASLLPTYRVIEEICSADAVAQGLQNAHSRIRTGIESLSEGHHHHHH | soluble
MSLSLPRWKQIVHMLYLKMEFISGGELGEALAVNPRTIRNDIKVINQILMIGGNRIESLPGVGYRLVIGDEKALREALLDDSIGRANMNIVPMFAEDRADYIIRYLLLKNDYVKLETLSEELFVSKSTINLDILEVKRKLKENELKVEKRAGYGIRITGAELAIRFCFSRYLLVESTSPLITETEINFFGEVNLEMMEQIVVSNIAKYNIHMTDISVKNLIIHIAIAVCRVKDNCYVPATDLEDIEFSMPELRAAQGIIKEIDLSEGIRFPESETAYLLLHLSSKNRKSDFNNYREYIIVDKMLEKIKELYGYDFKQDQKMISNIALHLKPAINRIKFNMNIQNPYLKNLKANYPLAFELGLVAKEVLEQELKTNVDEAEVGYLAIHFLYGLDKEEGHHHHHH | soluble
MSLSNSLLPPNASGLERDIEQVIVQSTDLPIRIKDLWNPYSCHLSLLPWLAWALSVDEWDDRWPEHIKRQVVQDSFDVHRFKGTPYAVQKALDSLNIKTHLREWWEPDGSQEPGTMTVVALINENLTDDDNGLITEAMLEQVTRVIHTAKRGVIHFDVELGISLDETLGFSGAIGPSIAEIDFSSDFLPIVPEKGSADMAFSAALYGIGSADFLADMSGVVPDEGHHHHHH | not soluble
MSLSPSPAIPSNTDYPGPHSFDVSFQQSSTAKSATWTYSTELKKLYCQIAKTCPIQIKVMTPPPQGAVIRAMPVYKKAEHVTEVVKRCPNHELSREFNEGQIAPPSHLIRVEGNSHAQYVEDPITGRQSVLVPYEPPQVGTEFTTVLYNFMCNSSCVGGMNRRPILIIVTLETRDGQVLGRRCFEARICACPGRDRKADEDSIRKQQVSDSTKNGDGTKRPFRQNTEGHHHHHH | soluble
MSLSQHIRKLDSDVSERLKSQACTVSLASAVREIVQNSVDAHATTIDVMIDLPNLSFAVYDDGIGLTRSDLNILATQNYTSKIRKMNDLVTMKTYGYRGDALYSISNVSNLFVCSKKKDYNSAWMRKFPSKSVMLSENTILPIDPFWKICPWSRTKSGTVVIVEDMLYNLPVRRRILKEEPPFKTFNTIKADMLQILVMHPMISLNVQYTDKLRINTEVLFRSKNITEGLTKHQQMSQVLRNVFGAEGHHHHHH | soluble
MSLSQIISSNDVDFQAYMAEAEPQAKVLAAEAWRDDLVRTVEHGDQITGAKLPWSKTHDLLRFRPGEVTLWQGINGHGKSELLGQACIGFATQGERVCIASFEMKPQATLKRMLRQTAMNARPGVQAVDRLIDWSRDRLWLYDQQGTVTPAMLYAVIRYCADRLKVRHMVIDSLMKCVRGEDDYNGQKDFVDMLCTLARDLRMHIHLVHHAKKGENEDQVPGKFSAKGSGAIVDQVDQMLTVWRNKKKERIAEAELRKDGEVSADTHDSPDTLLICDKNRHGEWEGRIQLWRHADSLQFTGDKRRQPLDMIGALAEGHHHHHH | soluble
MSLSQNNPLRALLDKQDILLLDGAMATELEARGCNLADSLWSAKVLVENPELIREVHLDYYRAGAQCAITASYQATPAGFAARGLDEAQSKALIGKSVELARKAREAYLAENPQAGTLLVAGSVGPYGAYLADGSEYRGDYHCSVEAFQAFHRPRVEALLDAGADLLACETLPNFSEIEALAELLTAYPRARAWFSFTLRDSEHLSDGTPLRDVVALLAGYPQVVALGINCIALENTTAALQHLHGLTVLPLVVYPNSGEHYDAVSKTWHHHGEHCAQLADYLPQWQAAGARLIGGCCRTTPADIAALKARSEGGSHHHHHH | soluble

Reference: the DeepSol protein solubility set
